# Test results from the supplement of paper PMC12764529.
# ± gives the half width of the 95% confidence interval.
# Tests used:
# [1] = folding stability dG unfold from trypsin proteolysis; higher = more stable
# In short: (§1)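 Mini-proteins designed to be under 80 residues and free of cysteine were carried in a PA-tagged cDNA display construct and digested with trypsin and with chymotrypsin. Each protease was applied at 11 threefold-diluted concentrations, alongside a no-protease condition, before sequencing. K50 came from Bayesian fitting of the sequencing counts, and unfolding free energy was obtained by comparing it with a sequence-predicted unfolded-state K50 and a shared folded-state K50, for each protease separately or for both together. Designs were retained only if their AlphaFold2 dimer inter-PAE exceeded 15.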
# [2] = folding stability dG unfold from chymotrypsin proteolysis; higher = more stable
# In short: as §1
# [3] = folding stability dG unfold (combined trypsin and chymotrypsin); higher = more stable
# In short: as §1
Sequence,folding stability dG unfold [1] [kcal/mol],folding stability dG unfold [2] [kcal/mol],folding stability dG unfold [3] [kcal/mol]
SAGLLEVLRKIAEELGWELTSVEVHELPDGSVVATGEFRKGDRTYRVDIRYDPETGRVEVRLEPVPVPESAG [r14_784_TrMRF],4.6 ± 0.22,5.51 ± 0.2,> 6
SAGLNIPPEMTVDELVEFLKSLGVKSYKVEKTEDPESYVVTFEFPDFTVVMTFHPDSVTITVVPKDEPLSAG [r5_899_TrMRF],3.14 ± 0.11,3.52 ± 0.061,3.34 ± 0.14
SAGLPIPEGATVKTLESSESVEGNKTVKTDKIIVTFPDGSTKEVEVVTTYDPNGNPTTTYIVGNKKIPLSAG [r5_507_JUSTAS],1.45 ± 0.052,1.19 ± 0.058,1.32 ± 0.059
SAGMAEKIKAELEKKGYKYEIEEVKDPNNDKTYLIVKIYPKDGKEYIIIFDKEKGEVIKKIPSDEPNILSAG [r5_938_JUSTAS],1.49 ± 0.13,1.59 ± 0.14,1.64 ± 0.24
SAGMDLKIEEEEDPLSGSRLFRIELRDPDGKYNLTVVVLKENGKIKAVLVLRENTGEPLTLPELVELLESAG [r5_872_TrMRF],2.83 ± 0.19,3.773 ± 0.017,3.43 ± 0.086
SAGMDPSDPNSITTLTTEVEPLPDGSTRVTTYTKLPDGTIVKNVTTLDPAGNVLTTTTTPIPPEALNASAGG [r19_285_JUSTAS],3.56 ± 0.17,3.85 ± 0.06,3.75 ± 0.096
SAGMDVKELAKEAMEKYPPGDKEIEFEIPVGPRPFKVKIDYEPDPENGKPRPKITIENPDNGKKTEFTFSAG [r5_236_TrROS],-1.07 ± 0.74,0.61 ± 0.19,0.11 ± 0.17
SAGMEATIEIVGHPGDKEAIAVLRPEDKTVVIYKNKDGSYTVEVFEPNPARLIERKELPLEEAIKEALSAGG [r19_188_TrMRF],-0.343 ± 0.12,1.45 ± 0.064,0.987 ± 0.13
SAGMELELELEFRLEDGLEVRIRVKVRFDPETGELVIEEVRIEVRPLPPPPPLVLTDEELEALGLEPEESAG [r5_393_TrROS_Hall],3.6 ± 0.23,3.32 ± 0.13,3.6 ± 0.16
SAGMELKVEIVAPKEVLLEKVKELEATIKKAFPKVKVEVEAKIEPLEGDEWKATVVIKIEPLPEDEPAESAG [r5_936_TrMRF],3.87 ± 0.27,3.59 ± 0.18,3.91 ± 0.78
SAGMGSDVPVLTAVLSVLNPETGEEVTIEVPGRNDYGEGKLIRPVSPEDLLAAALAVADALLKDPSLKASAG [r5_426_TrMRF],1.36 ± 0.036,0.24 ± 0.22,0.804 ± 0.11
SAGMIDVVVRVRLDVRPETVAEELRRRFPAIRRIEPVRVERRVEREPGRRYLLVHLRIELGDVPPELLRSAG [r5_326_TrMRF],1.78 ± 0.032,3.714 ± 0.021,3.33 ± 0.063
SAGMIEITVEVPAEDMTEEELKELAEELARALREAGLPEDVKIVDVRVERLPDGTVRVTIKIEVKPPPSAGG [r19_87_TrROS_Hall],4.24 ± 0.26,3.59 ± 0.44,4.36 ± 0.39
SAGMILTIRPEDGSEEIIPVPKEDIEKLIEDLEKKGIKVLSMTTSPDGVSTIPTQYPDGKKMTITVHLDSAG [r5_645_JUSTAS],0.707 ± 0.098,0.677 ± 0.22,0.677 ± 0.16
SAGMITLPTRGPEELIERLRAIAEELGLSEEDIEQFLRDLAEHATIEQDGDLLLITFQPPVPALPGEPESAG [r5_717_TrMRF],1.23 ± 0.071,1.91 ± 0.037,1.74 ± 0.17
SAGMITVPLPDGSVLELTVEKETVTTEVDPSTGKKRLVTETLMTNTGDLAVNGKVSPTTATLTTVVLESAGG [r19_246_JUSTAS],-0.36 ± 0.067,0.373 ± 0.045,0.155 ± 0.069

Sequence,folding stability dG unfold [1] [kcal/mol],folding stability dG unfold [2] [kcal/mol],folding stability dG unfold [3] [kcal/mol]
SAGMKAYIVSVEKNEDGTETIKLKVYFLDKNGKVVETKEITIKKGETIKITFPNGKTITVPAKDLKLVKSAG [r5_137_TrROS_Hall],2.02 ± 0.083,3.703 ± 0.033,3.24 ± 0.082
SAGMKAYNIKELKIEKIEKKGNKIKIKISGKGKFYFKTFSNGSAIIYIKKTNKAYYIDSNGKIVYIKDTSAG [r5_348_TrMRF],1.75 ± 0.12,1.56 ± 0.13,1.76 ± 0.27
SAGMKIEIEAEYDPESGTVTLHIKEEPEPGEPVEVKFPIKFLKDKVEIEAETEEPLDPEEILKKIKEELSAG [r5_478_TrMRF],-0.161 ± 0.14,0.835 ± 0.12,0.513 ± 0.2
SAGMKIEVKRLPGPGDYLFTLVDPELAARLKAVYPGLEEVIFPVGGPDSVPEEEIKERAEKELKELLLSAGG [r19_298_JUSTAS],-0.0847 ± 0.17,-0.66 ± 0.64,-0.268 ± 0.31
SAGMKIKIIKLDKNLEELSEEELKKLLEELAKKGLVEKKKDGKKVIPLTVIDKKTKKTYTFYIEIEKPPSAG [r5_243_TrROS_Hall],1.36 ± 0.041,2.72 ± 0.057,2.33 ± 0.17
SAGMKIKVEVKETGETYEIEISEEELKKKLKEKFPEVKEITVVVEDPEDMSEEELREKALKAAEELLKSAGG [r19_298_TrROS_Hall],1.59 ± 0.067,2.49 ± 0.051,2.28 ± 0.18
SAGMKITLPKGVKSIKVEEVNGKKVIYIEVDGKIFVYDLKTGKLYIYDKKTGEKKEITIKKGDTITLKSAGG [r19_138_TrROS_Hall],1.03 ± 0.028,1.79 ± 0.067,1.55 ± 0.07
SAGMKITVVELDGKSPEELSEEELKKLAEELLKELFPDVKKVKKVTVKVERLPDGRLVLVEVEIEVEEPSAG [r5_526_TrROS_Hall],2.18 ± 0.13,1.03 ± 0.089,1.79 ± 0.13
SAGMKIVEIEKKEDGTVKIKIEVNGEEKEIEVKVGETITLPDGSEIEVLEDGTIKVRPLPEPEVEEEESAGG [r19_17_TrROS_Hall],3.24 ± 0.39,2 ± 0.17,2.64 ± 0.26
SAGMKKKITVKVKVKTEEEAEKLAEELEKELGLKVTVEKNEETGVYTITVEVSPEAVEALKKAGVEIESAGG [r19_306_TrROS_Hall],1.93 ± 0.33,1.92 ± 0.083,1.86 ± 0.28
SAGMKKKKIKKVEIEIKKGEKTIRVKLENGEEIEYKFKEEDLEEALKKIAEKLGLKKGDKIKIVEIEIESAG [r5_923_TrROS_Hall],1.16 ± 0.12,0.907 ± 0.13,1.29 ± 0.33
SAGMKKPPPPTVTIKIRVNGKTITITVYPDGTVTVTFENGEKKTIKMTPEEVEKLLKELEKKGYEIELVSAG [r5_753_TrROS_Hall],2.51 ± 0.26,0.664 ± 0.33,1.49 ± 0.48
SAGMKKVKIETTEFREFEGGEREIVMKVYKPDGSEVATVVLPFPPDLSEEEMRERAEAEAKKLAEELGLSAG [r5_697_JUSTAS],0.581 ± 0.094,0.579 ± 0.17,0.636 ± 0.21
SAGMKPEEVRVIEIPPGMTVEEIIEAIEKEGPLRIRVEGKELEFESKEDIEAAIRNAPEPVRIEVRRLSAGG [r19_95_TrROS_Hall],0.865 ± 0.04,1.05 ± 0.092,1 ± 0.089
SAGMKPGDMRPVEIPFEIYQYDDGGPKPVAPMTIKIMVNPDEGYVMLEIENPGNGEPVIIFTLPADDISAGG [r19_413_TrROS],1.65 ± 0.055,2.42 ± 0.057,2.16 ± 0.1
